The results in this text go back to patent US20200368279.

Common to all, as to assay: cell_activity
For series [1], the system named is SBS75609 ZFN. The settings on record: pair with SBS75606, K562, 15 ug/mL mRNA; 70.1 at 3.75 ug/mL.
The subject of series [2] is SBS75606 ZFN. The settings on record: pair with SBS75609, K562, 15 ug/mL mRNA; 70.1 at 3.75 ug/mL.
Series [3] has as its system SBS75714 ZFN. The settings on record: pair with SBS75715, K562, 15 ug/mL mRNA; 84.0 at 3.75 ug/mL.
The subject of series [4] is SBS75592 ZFN. The settings on record: pair with SBS75591, K562, 15 ug/mL mRNA; 80.0 at 3.75 ug/mL.
For series [5], the system named is SBS75895 ZFN. Conditions: pair with SBS75893, K562, 15 ug/mL mRNA; 76.6 at 3.75 ug/mL.
Series [6] deals with SBS75893 ZFN. The settings on record: pair with SBS75895, K562, 15 ug/mL mRNA; 76.6 at 3.75 ug/mL.
For series [7], the system named is SBS75715 ZFN. Conditions: pair with SBS75714, K562, 15 ug/mL mRNA; 84.0 at 3.75 ug/mL.
Series [8] deals with SBS75591 ZFN. Conditions: pair with SBS75592, K562, 15 ug/mL mRNA; 80.0 at 3.75 ug/mL.

As to “CTCCCCTGACCAAGGAAAATCGGGGTGG (double strand) [SBS75609 target]”, the activity in series [1] stood at 91.4 % indels.
Consider “AAGGAGGTGCTCCTGGAATTACTTAGCA (double strand) [SBS75606 target]”, for which the activity in series [2] was determined as 91.4 % indels.
In turn, “AGGGATGGGATGACTTGGCTTTAGGTCA (double strand) [SBS75714 target]” had an activity in series [3] of 90.7 % indels.
Consider “GCTAAGTAATTCCAGGAGCACCTCCTTT (double strand) [SBS75592 target]”, for which the activity in series [4] was 91.2 % indels.
As to “AGGTTGGGAGTGGGGTCTTGTTCAGGGC (double strand) [SBS75895 target]”, the activity in series [5] was 91.3 % indels.
As for “GGGCTAGGGCTGAAGTGAGGTGAAAGGT (double strand) [SBS75893 target]”, the activity in series [6] came to 91.3 % indels.
“GGACTCAGGTGGGGGGTCTAGGGGTGAG (double strand) [SBS75715 target]”: the activity in series [7] is 90.7 % indels.
Turning to “TCGGCCATCAGAAGGGAGGGACCCTGCT (double strand) [SBS75591 target]”, in series [8], the activity was determined as 91.2 % indels.
